B1: A168H and mutated at amino acids 159-161 from LIF to IFL: mHSV-TK CO MB-IFL A168H(IFL . . . AHL) (nucleic acid)
chain: GTCAGCGGCCGCACCGGTACGCGTCCACCATGGCCAGCTACCCCGGCCACCAGCACGCCAGCGCCTTCGACCAGGCCGCCCGCAGCCGCGGCCACAGCAACGGCAGCACCGCACTGCGGCCACGGCGCCAGCAGGAGGCCACCGAGGTGCGCCCCGAGCAGAAGATGCCCACCCTGCTGCGCGTGTACATCGACGGACCACACGGCATGGGCAAGACCACCACCACCCAGCTGCTGGTGGCCCTGGGCAGCCGCGACGACATCGTGTACGTGCCCGAGCCCATGACCTACTGGCGCGTGCTGGGCGCCAGCGAGACCATCGCCAACATCTACACCACCCAGCACCGCCTGGACCAAGGCGAGATCAGCGCCGGCGACGCCGCCGTGGTGATGACCAGCGCCCAGATTACAATGGGCATGCCCTACGCCGTGACCGACGCCGTGCTGGCACCACACATCGGCGGCGAGGCCGGCAGCAGCCACGCACCACCACCAGCACTGACCATCTTCCTGGACCGGCACCCAATCGCACACCTGCTGTGCTACCCGGCAGCACGCTACCTGATGGGCTCCATGACACCACAAGCCGTGCTGGCCTTCGTGGCCCTGATCCCACCAACACTGCCCGGCACCAACATCGTGCTGGGCGCCCTGCCCGAGGACCGCCACATCGACCGCCTGGCCAAGCGCCAGCGCCCCGGCGAGCGCCTGGACCTGGCCATGCTGGCCGCCATCCGCCGCGTGTACGGCCTGCTGGCCAACACCGTGCGCTACCTGCAGTGCGGCGGCAGCTGGCGCGAGGACTGGGGCCAGCTGAGCGGCACCGCCGTGCCACCACAGGGCGCCGAGCCACAGAGCAACGCCGGACCACGACCACACATCGGCGACACCCTGTTCACCCTGTTCCGGGCACCAGAGCTGCTGGCACCAAACGGCGACCTGTACAACGTGTTCGCCTGGGCCCTGGACGTGCTGGCCAAGCGCCTGCGCTCCATGCACGTGTTCATCCTGGACTACGACCAGTCACCGGCCGGCTGCCGCGACGCCCTGCTGCAGCTGACCAGCGGCATGGTGCAGACCCACGTGACAACACCCGGCAGCATCCCAACAATCTGCGACCTGGCCCGCACCTTCGCCCGCGAGATGGGCGAGGCCAACTAATAGGGATCCCTCGAGAAGCTTGTCA
B2: SEQ ID NO: 18 (nucleic acid)
chain: GTCAGCGGCCGCACCGGTACGCGTCCACCATGGCCCTGCAGAAAAAGCTGGAAGAGCTGGAACTGGATGGCAGCTACCCCGGCCACCAGCACGCCAGCGCCTTCGACCAGGCCGCCCGCAGCCGCGGCCACAGCAACGGCAGCACCGCACTGCGGCCAGGATCTCAGCAGGAGGCCACCGAGGTGCGCCCCGAGCAGAAGATGCCCACCCTGCTGCGCGTGTACATCGACGGACCACACGGCATGGGCAAGACCACCACCACCCAGCTGCTGGTGGCCCTGGGCAGCCGCGACGACATCGTGTACGTGCCCGAGCCCATGACCTACTGGCGCGTGCTGGGCGCCAGCGAGACCATCGCCAACATCTACACCACCCAGCACCGCCTGGACCAAGGCGAGATCAGCGCCGGCGACGCCGCCGTGGTGATGACCAGCGCCCAGATTACAATGGGCATGCCCTACGCCGTGACCGACGCCGTGCTGGCACCACACATCGGCGGCGAGGCCGGCAGCAGCCACGCACCACCACCAGCACTGACCCTGATCTTCGACCGGCACCCAATCGCACACCTGCTGTGCTACCCGGCAGCACGCTACCTGATGGGCTCCATGACACCACAAGCCGTGCTGGCCTTCGTGGCCCTGATCCCACCAACACTGCCCGGCACCAACATCGTGCTGGGCGCCCTGCCCGAGGACCGCCACATCGACCGCCTGGCCAAGCGCCAGCGCCCCGGCGAGCGCCTGGACCTGGCCATGCTGGCCGCCATCCGCCGCGTGTACGGCCTGCTGGCCAACACCGTGCGCTACCTGCAGTGCGGCGGCAGCTGGCGCGAGGACTGGGGCCAGCTGAGCGGCACCGCCGTGCCACCACAGGGCGCCGAGCCACAGAGCAACGCCGGACCACGACCACACATCGGCGACACCCTGTTCACCCTGTTCCGGGCACCAGAGCTGCTGGCACCAAACGGCGACCTGTACAACGTGTTCGCCTGGGCCCTGGACGTGCTGGCCAAGCGCCTGCGCTCCATGCACGTGTTCATCCTGGACTACGACCAGTCACCGGCCGGCTGCCGCGACGCCCTGCTGCAGCTGACCAGCGGCATGGTGCAGACCCACGTGACAACACCCGGCAGCATCCCAACAATCTGCGACCTGGCCCGCACCTTCGCCCGCGAGATGGGCGAGGCCAACTAATAGGGATCCCTCGAGAAGCTTGTCA

What was measured:
Assay type in all cases: cell-based
[1] = system: cancer cells; assay: GCV mediated cancer kill following retroviral transduction delivery
Description: To our knowledge, this is the most GCV selective HSV-TK synthetic gene product for GCV activation which has no Thymidine activity (HAT assay) ever evaluated biologically.

[2] = system: C6 rat glioma; assay: In vitro bystander assay; conditions: 0-100% HSV-TK-m2 cells, 5-20 μM GCV
Method: (§1) Cells are seeded at 1-4×10^4 cells/well in a 96 well plate, in triplicate, with mixtures of TK cells ranging from 0-100%. The next day GCV is added at doses ranging from 10 μm to 1 mM. Cells plates at confluency are split 1:30 into 3 plates, 20-24 hours after GCV addition. 5 days later, cells are analyzed by Presto Blue for live cell metabolism and read on a microplate reader. Cell plates at sub-confluency are analyzed 3 days after GCV treatment by Presto Blue.
(§2) A375 human melanoma and C6 rat glioma stable pure population cell lines were established containing the A168H mutated HSV-TK-m2 gene. The bystander assays were conducted by plating the cancer cells with mixtures of the parental non-HSV-TK-m2 cells with the corresponding HSV-TK-m2 cell line ranging from 0-100% HSV-TK-m2. The mixtures of cancer cells were subsequently exposed to 5-20 μM GCV and cell kill is plotted in the figures below.

[3] = system: A375 human melanoma; assay: In vitro bystander assay; conditions: 0-100% HSV-TK-m2 cells, 5-20 μM GCV
Method: as §1, §2

Molecule	GCV mediated cancer kill activity [1]	cell kill in mixed populations (bystander effect) [2]	cell kill in mixed populations (bystander effect) [3]
B1	exhibited GCV mediated cancer cell kill activity	–	–
B2	exhibited pro-drug GCV enzyme activity and selectivity for their ability to kill cancer cells	significant increases in the mixed populations over what would be considered theoretical	significant increases in the mixed populations over what would be considered theoretical

— patent publication US10610603B2, “Thymidine kinase gene” (GenVivo, Inc., priority 2013, dated 2020)
